According to the supplement of paper PMC10724198:
± gives the standard deviation of the averaged measurements.

Columns and labels:
Saccharomyces cerevisiae [1] = assay: protein stability index of tFT-peptide fusion (C-terminal peptide) (PSI (0-1 scale)); higher = more stable (slower turnover)
Description: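 MPS profiling in S. cerevisiae of the tFT-X12 degron library: putative degron peptides plus stable controls, 12 aa, fused to the C-terminus of a sfGFP-mCherry timer. Cells are FACS-sorted into 8 mCherry/sfGFP bins and deep-sequenced. PSI runs from 0 (unstable) to 1 (stable). Backgrounds are wild type, das1Δ and doa10Δ at 30 °C, and wild type, das1Δ, cdc34-1 and cdc53-1 at 37 °C; 2-3 technical replicates each.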

Saccharomyces cerevisiae [2] = assay: as above; details: genetic background: wild type; temperature: 30 C
[3] = genetic background: cdc34-1, temperature: 37 C
[4] = genetic background: cdc53-1, temperature: 37 C
[5] = genetic background: das1 deletion, temperature: 30 C
[6] = genetic background: das1 deletion, temperature: 37 C
[7] = genetic background: doa10 deletion, temperature: 30 C
[8] = genetic background: wild type, temperature: 30 C
[9] = genetic background: wild type, temperature: 37 C
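Further: PSI is a weighted mean of sequencing reads over stability bins, variants kept only with over 10 reads, mCherry proximal and sfGFP distal, peptide attached via GGGS linker.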

Sequence | protein stability index (Saccharomyces cerevisiae [1]; [3]) | protein stability index (Saccharomyces cerevisiae [1]; [4]) | protein stability index (Saccharomyces cerevisiae [1]; [5]) | protein stability index (Saccharomyces cerevisiae [1]; [6]) | protein stability index (Saccharomyces cerevisiae [1]; [7]) | protein stability index (Saccharomyces cerevisiae [1]; [8]) | protein stability index (Saccharomyces cerevisiae [1]; [9]) | protein stability index (Saccharomyces cerevisiae [2])
LMFCPPLLRVAL | 0.44 ± 0.023 | 0.4421 ± 0.0031 | 0.372 ± 0.03 | 0.526 ± 0.015 | 0.399 ± 0.026 | 0.392 ± 0.018 | 0.473 ± 0.0086 | 0.485 ± 0.013
LMFSRSLFIVKC | 0.435 ± 0.035 | 0.438 ± 0.051 | 0.36 ± 0.038 | 0.514 ± 0.018 | 0.168 ± 0.0054 | 0.178 ± 0.025 | 0.343 ± 0.037 | 0.295 ± 0.043
LMPYIIFLMSFQ | 0.458 ± 0.026 | 0.496 ± 0.017 | 0.351 ± 0.027 | 0.5408 ± 0.0045 | 0.335 ± 0.028 | 0.347 ± 0.0081 | 0.498 ± 0.042 | 0.418 ± 0.014
LPPSVLPLPPSH | 0.647 ± 0.053 | 0.72 ± 0.013 | 0.658 ± 0.015 | 0.73 ± 0.024 | 0.6756 ± 0.0016 | 0.679 ± 0.033 | 0.752 ± 0.053 | 0.729 ± 0.021
LPPVPLRLTLVL | 0.448 ± 0.0077 | 0.474 ± 0.031 | 0.353 ± 0.026 | 0.503 ± 0.005 | 0.3197 ± 0.0027 | 0.359 ± 0.024 | 0.477 ± 0.0054 | 0.4414 ± 0.00093
LPRDPLHAQIAS | 0.647 ± 0.019 | 0.696 ± 0.0026 | 0.645 ± 0.019 | 0.6959 ± 0.0017 | 0.223 ± 0.0072 | 0.257 ± 0.031 | 0.516 ± 0.036 | 0.384 ± 0.069
LQFSLPCFLLIF | 0.145 ± 0.0042 | 0.134 ± 0.022 | 0.205 ± 0.019 | 0.253 ± 0.0062 | 0.211 ± 0.0099 | 0.159 ± 0.015 | 0.208 ± 0.019 | 0.221 ± 0.033
LQLRKQILLLMT | 0.348 ± 0.022 | 0.36 ± 0.011 | 0.299 ± 0.022 | 0.432 ± 0.005 | 0.169 ± 0.019 | 0.195 ± 0.013 | 0.233 ± 0.034 | 0.299 ± 0.025
LQSVLRGIDCCA | 0.347 ± 0.0089 | 0.375 ± 0.016 | 0.252 ± 0.053 | 0.467 ± 0.0052 | 0.214 ± 0.0044 | 0.266 ± 0.018 | 0.4341 ± 0.0029 | 0.411 ± 0.085
LRCIFVVVSFTP | 0.0799 ± 0.045 | 0.2 ± 0.025 | 0.172 ± 0.035 | 0.305 ± 0.014 | 0.129 ± 0.0095 | 0.153 ± 0.035 | 0.25 ± 0.0035 | 0.291 ± 0.15
LRCLAIFLYRAF | 0.576 ± 0.045 | 0.6238 ± 0.0039 | 0.49 ± 0.02 | 0.644 ± 0.015 | 0.399 ± 0.013 | 0.404 ± 0.02 | 0.563 ± 0.015 | 0.466 ± 0.013
LRRQAFRYRTLL | 0.458 ± 0.037 | 0.552 ± 0.031 | 0.569 ± 0.021 | 0.566 ± 0.006 | 0.1668 ± 0.0014 | 0.19 ± 0.0052 | 0.2454 ± 0.00035 | 0.221 ± 0.0096
LRTLVFIWFMYV | 0.296 ± 0.045 | 0.481 ± 0.058 | 0.273 ± 0.035 | 0.4851 ± 0.0041 | 0.126 ± 0.0092 | 0.143 ± 0.024 | 0.2612 ± 0.00061 | 0.19 ± 0.067
LRTYSFTIGTLC | 0.616 ± 0.052 | 0.637 ± 0.027 | 0.471 ± 0.024 | 0.6402 ± 0.0061 | 0.241 ± 0.027 | 0.279 ± 0.035 | 0.492 ± 0.015 | 0.385 ± 0.012
LSALMVLSFILV | 0.377 ± 0.016 | 0.4332 ± 0.0036 | 0.379 ± 0.024 | 0.4573 ± 0.00059 | 0.343 ± 0.011 | 0.355 ± 0.028 | 0.428 ± 0.0022 | 0.418 ± 0.033
LSFRLSYPLPIY | 0.418 ± 0.017 | 0.47 ± 0.025 | 0.352 ± 0.034 | 0.5403 ± 0.0029 | 0.1 ± 0.013 | 0.108 ± 0.0014 | 0.132 ± 0.0069 | 0.178 ± 0.032
LSIALPFPVLCR | 0.0213 ± 0.0045 | 0.038 ± 0.03 | 0.115 ± 0.019 | 0.091924 ± 4.9e-05 | 0.0844 ± 0.017 | 0.0877 ± 0.025 | 0.0459 ± 0.011 | 0.134 ± 0.012
LSITQLFCLCAV | 0.317 ± 0.0048 | 0.337 ± 0.02 | 0.289 ± 0.031 | 0.4 ± 0.0069 | 0.2322 ± 0.0017 | 0.272 ± 0.016 | 0.356 ± 0.006 | 0.3742 ± 0.0031
LSLSLQVVVFSM | 0.438 ± 0.034 | 0.497 ± 0.022 | 0.317 ± 0.024 | 0.484 ± 0.0062 | 0.3203 ± 0.00038 | 0.322 ± 0.021 | 0.457 ± 0.022 | 0.467 ± 0.022
LSPYPLTFLFSQ | 0.693 ± 0.07 | 0.7506 ± 0.0056 | 0.648 ± 0.014 | 0.742 ± 0.0096 | 0.365 ± 0.014 | 0.393 ± 0.043 | 0.61752 ± 0.00015 | 0.51 ± 0.042

Sequence | protein stability index (Saccharomyces cerevisiae [1]; [3]) | protein stability index (Saccharomyces cerevisiae [1]; [4]) | protein stability index (Saccharomyces cerevisiae [1]; [5]) | protein stability index (Saccharomyces cerevisiae [1]; [6]) | protein stability index (Saccharomyces cerevisiae [1]; [7]) | protein stability index (Saccharomyces cerevisiae [1]; [8]) | protein stability index (Saccharomyces cerevisiae [1]; [9]) | protein stability index (Saccharomyces cerevisiae [2])
LSWWCFLVLLHW | 0.172 ± 0.0081 | 0.14 ± 0.044 | 0.232 ± 0.026 | 0.323 ± 0.021 | 0.262 ± 0.017 | 0.202 ± 0.016 | 0.268 ± 0.012 | 0.302 ± 0.094
LTPKRLTVCRLC | 0.553 ± 0.066 | 0.758 ± 0.012 | 0.688 ± 0.01 | 0.7862 ± 0.0057 | 0.306 ± 0.019 | 0.318 ± 0.008 | 0.628 ± 0.066 | 0.512 ± 0.079
LVACLGYAVYCL | 0.529 ± 0.042 | 0.557 ± 0.03 | 0.402 ± 0.024 | 0.573 ± 0.0087 | 0.369 ± 0.015 | 0.394 ± 0.017 | 0.5568 ± 0.0018 | 0.46 ± 0.012
LVCFFLFSLFYL | 0.433 ± 0.02 | 0.479 ± 0.018 | 0.335 ± 0.028 | 0.5331 ± 0.0039 | 0.357 ± 0.015 | 0.358 ± 0.029 | 0.5098 ± 0.0013 | 0.386 ± 0.037
LVFCFRSLFLCS | 0.57 ± 0.057 | 0.603 ± 0.0097 | 0.542 ± 0.012 | 0.6784 ± 0.0048 | 0.254 ± 0.014 | 0.243 ± 0.019 | 0.39121 ± 0.00016 | 0.34 ± 0.022
LVFRIRNANRLV | 0.615 ± 0.046 | 0.7144 ± 0.0041 | 0.6418 ± 0.0024 | 0.728 ± 0.024 | 0.127 ± 0.015 | 0.164 ± 0.026 | 0.314 ± 0.03 | 0.309 ± 0.014
LVFSVIPVLFVL | 0.454 ± 0.011 | 0.474 ± 0.025 | 0.355 ± 0.015 | 0.528 ± 0.017 | 0.328 ± 0.015 | 0.318 ± 0.022 | 0.461 ± 0.027 | 0.419 ± 0.087
LVGTRTIFCFLH | 0.618 ± 0.017 | 0.721 ± 0.0084 | 0.57 ± 0.018 | 0.741 ± 0.027 | 0.207 ± 0.0076 | 0.218 ± 0.026 | 0.401 ± 0.0054 | 0.3164 ± 0.002
LVGWSWAACWLA | 0.522 ± 0.057 | 0.608 ± 0.029 | 0.58 ± 0.024 | 0.712 ± 0.019 | 0.292 | 0.298 ± 0.012 | 0.396 ± 0.012 | 0.408 ± 0.016
LVILRCAFPVYG | 0.469 ± 0.011 | 0.529 ± 0.0084 | 0.339 ± 0.03 | 0.538 ± 0.009 | 0.298 ± 0.014 | 0.332 ± 0.043 | 0.51345 ± 9.4e-05 | 0.3963 ± 0.00083
LVLFVCFSLFMR | 0.153 ± 0.0065 | 0.166 ± 0.037 | 0.189 ± 0.019 | 0.291 ± 0.012 | 0.219 ± 0.0087 | 0.168 ± 0.022 | 0.2732 ± 0.00043 | 0.309 ± 0.058
LVLPAFLLLLYP | 0.2108 ± 0.0018 | 0.183 ± 0.022 | 0.307 ± 0.034 | 0.4212 ± 0.0012 | 0.509 ± 0.023 | 0.309 ± 0.028 | 0.367 ± 0.0037 | 0.4134 ± 0.0013
LVLVLAVFGCHD | 0.397 ± 0.022 | 0.543 ± 0.079 | 0.305 ± 0.03 | 0.563 ± 0.02 | 0.284 ± 0.014 | 0.319 ± 0.036 | 0.477 ± 0.024 | 0.42 ± 0.061
LVNSPSISSLWL | 0.695 ± 0.019 | 0.736 ± 0.034 | 0.688 ± 0.015 | 0.746 ± 0.0087 | 0.6786 ± 0.0038 | 0.691 ± 0.018 | 0.719 ± 0.008 | 0.586 ± 0.22
LVSLLYFIVSLF | 0.516 ± 0.013 | 0.579 ± 0.033 | 0.473 ± 0.0089 | 0.566 ± 0.031 | 0.241 ± 0.018 | 0.254 ± 0.011 | 0.323 ± 0.014 | 0.311 ± 0.007
LVTRVFVYFSIG | 0.498 ± 0.061 | 0.583 ± 0.035 | 0.403 ± 0.034 | 0.554 ± 0.036 | 0.323 ± 0.0055 | 0.35 ± 0.034 | 0.514 ± 0.0066 | 0.413 ± 0.012
LVVEALFYVLVS | 0.036 ± 0.011 | 0.0563 ± 0.025 | 0.126 ± 0.025 | 0.181 ± 0.0096 | 0.0851 ± 0.0085 | 0.107 ± 0.021 | 0.124 ± 0.014 | 0.219 ± 0.054
LVVFFPVLPIFG | 0.504 ± 0.02 | 0.554 ± 0.0072 | 0.394 ± 0.027 | 0.566 ± 0.016 | 0.383 ± 0.014 | 0.408 ± 0.0064 | 0.58 ± 0.077 | 0.4965 ± 0.0017
LVVRLFVWDVVW | 0.34 ± 0.016 | 0.374 ± 0.028 | 0.269 ± 0.043 | 0.473 ± 0.0097 | 0.224 ± 0.006 | 0.266 ± 0.028 | 0.436 ± 0.0076 | 0.347 ± 0.045
